Results on two molecules are retold here after article PMC5314766.

Common to all, as to assay: fluorescence polarization
For one series, the target named is Exo10(6exo-) Lassoless (Saccharomyces cerevisiae, UniProt Q12149;P46948;Q12277;P25359;Q05636;P53256;P48240;P38792;Q08285;P53859 …, D238N).
Series [1] concerns the target Exo10(6exo-) Partial lasso (Saccharomyces cerevisiae, UniProt Q12149;P46948;Q12277;P25359;Q05636;P53256;P48240;P38792;Q08285;P53859 …, D238N).
Series [2] concerns the target Exo11(44exo-/6exo-) Lassoless (Saccharomyces cerevisiae, UniProt Q12149;Q08162;P46948;Q12277;P25359;Q05636;P53256;P48240;P38792;Q08285;P53859 …, D238N;D551N).
The target in series [3] is T1, Rrp6 EARless, catalytically dead (Saccharomyces cerevisiae, UniProt Q12149 128-733, D238N;del517-617).
T1 sequence: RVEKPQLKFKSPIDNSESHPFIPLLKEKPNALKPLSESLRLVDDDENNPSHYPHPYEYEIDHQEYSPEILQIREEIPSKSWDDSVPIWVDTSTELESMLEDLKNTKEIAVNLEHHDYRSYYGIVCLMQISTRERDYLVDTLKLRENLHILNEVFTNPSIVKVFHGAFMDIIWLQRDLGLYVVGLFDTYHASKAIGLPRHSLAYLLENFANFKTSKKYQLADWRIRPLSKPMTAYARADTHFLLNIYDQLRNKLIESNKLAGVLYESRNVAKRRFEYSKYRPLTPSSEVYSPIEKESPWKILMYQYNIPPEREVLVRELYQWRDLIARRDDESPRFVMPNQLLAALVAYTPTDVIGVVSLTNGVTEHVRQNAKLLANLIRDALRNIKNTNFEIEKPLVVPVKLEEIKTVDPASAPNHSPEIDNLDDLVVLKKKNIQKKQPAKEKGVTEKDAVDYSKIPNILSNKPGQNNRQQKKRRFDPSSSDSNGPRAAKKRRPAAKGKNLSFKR

In series [4] the target is T2, Rrp6 Lassoless, catalytically dead (Saccharomyces cerevisiae, UniProt Q12149 128-634, D238N).
T2 sequence: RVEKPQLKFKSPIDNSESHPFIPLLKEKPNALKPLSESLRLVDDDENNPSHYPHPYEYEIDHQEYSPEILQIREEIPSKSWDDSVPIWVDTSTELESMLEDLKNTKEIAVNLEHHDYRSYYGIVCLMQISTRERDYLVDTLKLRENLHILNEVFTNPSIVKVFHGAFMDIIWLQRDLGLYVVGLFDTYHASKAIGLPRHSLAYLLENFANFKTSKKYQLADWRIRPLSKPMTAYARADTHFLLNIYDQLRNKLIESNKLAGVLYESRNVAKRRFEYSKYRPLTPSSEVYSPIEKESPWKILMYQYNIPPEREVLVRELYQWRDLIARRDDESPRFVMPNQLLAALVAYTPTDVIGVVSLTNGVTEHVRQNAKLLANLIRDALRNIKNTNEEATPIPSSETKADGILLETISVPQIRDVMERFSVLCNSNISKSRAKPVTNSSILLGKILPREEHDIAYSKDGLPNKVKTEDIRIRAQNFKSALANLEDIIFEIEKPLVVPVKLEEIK

The target of series [5] is T3, Rrp6 Lasso (CTD intact), catalytically dead (Saccharomyces cerevisiae, UniProt Q12149 128-733, D238N).
T3 sequence: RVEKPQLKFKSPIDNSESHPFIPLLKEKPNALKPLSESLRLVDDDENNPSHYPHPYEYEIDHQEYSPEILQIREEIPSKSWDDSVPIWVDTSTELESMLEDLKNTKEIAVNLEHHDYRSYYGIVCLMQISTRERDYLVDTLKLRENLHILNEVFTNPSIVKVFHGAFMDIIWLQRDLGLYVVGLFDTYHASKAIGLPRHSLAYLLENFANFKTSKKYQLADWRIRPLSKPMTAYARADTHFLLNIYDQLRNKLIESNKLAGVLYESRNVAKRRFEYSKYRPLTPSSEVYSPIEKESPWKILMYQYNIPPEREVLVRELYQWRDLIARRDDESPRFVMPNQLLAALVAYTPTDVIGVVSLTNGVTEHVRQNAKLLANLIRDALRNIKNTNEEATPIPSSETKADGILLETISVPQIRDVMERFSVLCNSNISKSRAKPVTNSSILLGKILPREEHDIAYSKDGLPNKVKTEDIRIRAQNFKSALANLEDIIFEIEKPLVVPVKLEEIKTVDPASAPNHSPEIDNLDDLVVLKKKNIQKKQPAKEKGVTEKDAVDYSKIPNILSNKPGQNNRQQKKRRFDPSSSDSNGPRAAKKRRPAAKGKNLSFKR

Another series addresses Exo10(6exo-) Lasso (Saccharomyces cerevisiae, UniProt Q12149;P46948;Q12277;P25359;Q05636;P53256;P48240;P38792;Q08285;P53859 …, D238N).

Consider AAAAAAAAAAAAAAAAAAAAAAAAAAAAAAAAAAAAA (ssRNA) [37 nt polyA RNA], for which the binding signal is > 15 fold weaker than P6 with Exo10(6exo-) Lassoless; > 15 fold weaker than P6 in series [1]; 6 fold weaker than P9 in series [2]; 6 fold tighter than lassoless (P4) in series [3]; 4 fold weaker than lasso-containing (P3) in series [4]; 4 fold tighter than lassoless (P4) in series [5].

Consider AUUAUUUAUUUAUUAUUAUUUAUU (ssRNA) [AU-rich RNA 24 nt], for which, in the series with Exo10(6exo-) Lasso, the binding result is listed as “binds”.
